The labels stand for the following.
B1: HDM2NTD (N-terminal domain of HDM2, amino acids 1 to 125 of NP-002383) (other, human, UniProt Q00987 1-125, looked up)
chain: MCNTNMSVPTDGAVTTSQIPASEQETLVRPKPLLLKLLKSVGAQKDTYTMKEVLFYLGQYIMTKRLYDEKQQHIVYCSNDLLGDLFGVPSFSVKEHRKIYTMIYRNLVVVNQQESSDSGTSVSEN
notes: range 1-125
B5: HDMXNTD (N-terminal domain of HDMX, amino acid residues 1 to 132 of NP-001191100) (other, human, UniProt O15151 1-132, looked up)
chain: MTSFSTSAQCSTSDSACRISPGQINQVRPKLPLLKILHAAGAQGEMFTVKEVMHYLGQYIMVKQLYDQQEQHMVYCGGDLLGELLGRQSFSVKDPSPLYDMLRKNLVTLATATTDAAQTLALAQDHSMDIPS
notes: range 1-132; also called HDM4

For test [1], the target named is T1, GST (UniProt P08515 1-218 = GST).
T1 construct: Negative control in the pull-down; also called glutathione S-transferase tag alone (control)
Kind of test: ELISA, HDM2NTD coated at 20 µg/ml, HRP anti-GST antibody, absorbance at 450 nm. As for the experimental part: (§1) HDM2 or HDMX was diluted to a concentration of 20 μg/ml in a coating buffer (pH 9.6; 0.05M carbonate-bicarbonate buffer, pH 9.6 (Sigma-Aldrich)), applied to 96-well plates (Nunc, Maxisorp) and incubated overnight at 4° C. Then, the plates were treated with 300 μl of 3% skim milk w/PBS-T (room temperature, 3 hrs) to block the binding of other proteins. The 96-well plates were washed with 200 μL of PBS-T before each well was treated with serial dilutions of 0, 50, 100, 200, 400, 800, 1200, 1600, 2400, 3200, 4800, and 6400 nM of GST-WT p53, GST-p53LZ1, GST-p53LZ2, GST, pDIQ, and pMI.
(§2) After one hour of incubation, the plates were washed three times with 300 μL of PBS-T, and incubated at room temperature for 1 hr with 100 μL of an HRP conjugated-anti-GST antibody (Abcam, 1:2000). Thereafter, treatment with TMB substrate (Pierce, 100 μL) for 5 min developed a color. A stop solution (Pierce, 100 μL) was added, followed by reading absorbance at 450 nm on microwell reader (Molecular Device, Model: 340PC384).

For test [2], the target named is B1. The description is as above. The protocol:
as §1, §2

The target in test [3] is B5. Description: ELISA, HDMXNTD coated at 20 µg/ml, HRP anti-GST antibody, absorbance at 450 nm. The protocol: as §1, §2
A further test concerns the target T2, full-length HDM2 (human, UniProt Q00987 1-491).
T2 construct: mature
Kind of test: ELISA, full-length HDM2 coated at 20 µg/ml, HRP anti-GST antibody, absorbance at 450 nm. The protocol: as §1, §2

Test [4] concerns the target T1, GST. Kind of test: GST pull-down on glutathione resin, 12% SDS-PAGE of the eluate.
The target in test [5] is B5. Description: ITC (FIG. 6).
Test [6] concerns the target B5. Kind of test: ITC, p53LZ2 with HDMXNTD.
For test [7], the target named is B1. Kind of test: ITC, 0.5 mM p53LZ2 injected into 0.03 mM HDM2NTD, PBS pH 7.4, 18 °C. The protocol: Meanwhile, the binding of p53LZ2 to HDM2 and HDMX was evaluated by ITC (isothermal titration calorimetry).
Test [8] has as its target T1, GST. Description: ELISA, HDMXNTD coated at 20 µg/ml, HRP anti-GST antibody, absorbance at 450 nm. As for the experimental part: as §1, §2

No end group written: not given here.

T1 sequence (P08515 whole entry): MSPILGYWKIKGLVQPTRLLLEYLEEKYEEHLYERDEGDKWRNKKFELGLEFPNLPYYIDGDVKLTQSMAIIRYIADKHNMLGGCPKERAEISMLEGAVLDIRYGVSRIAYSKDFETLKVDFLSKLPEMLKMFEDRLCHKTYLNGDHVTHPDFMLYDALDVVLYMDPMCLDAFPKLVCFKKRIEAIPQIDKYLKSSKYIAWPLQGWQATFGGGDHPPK

Take B1: in the test with GST [1], the binding result is listed as “no binding (tested: 6400 nM)”.

B2: GST-p53LZ2 (leucine zipper variant p53LZ2, inventive, tagged with GST) (designed binder)
chain: RMKQLEDKVGELLFSNYWLELEVARLKKLV
modifications: not fully specified (N-terminus); also: parallel homodimer, GST junction linker letters not given here
notes: not shown: GST carrier (pGEX-4T3 vector) and its junction linker
For the molecule B2, the “EC50 (read off the curve)” value was ~200 nM in test [2], ~200 nM in test [3] and ~300 nM with full-length HDM2.

B3: His6-HDM2NTD (other, human)
chain: HHHHHHMCNTNMSVPTDGAVTTSQIPASEQETLVRPKPLLLKLLKSVGAQKDTYTMKEVLFYLGQYIMTKRLYDEKQQHIVYCSNDLLGDLFGVPSFSVKEHRKIYTMIYRNLVVVNQQESSDSGTSVSEN
notes: range 1-125; Tag placed N-terminally by its name only
With B3, the binding result with GST [4] is recorded as “no binding”.

Consider RMKQLEDKVGELLFSNYWLELEVARLKKLV (designed binder) [leucine zipper variant p53LZ2], for which the Kd in test [5] is ~80 nM. In addition, in test [6], the “-TΔS” value turned out to be 1.16 kcal/mol, the N stood at 0.65 and the ΔH is -9.66 kcal/mol. For the same molecule, in [7], the “-TΔS” value is 1.48 kcal/mol, the Kd is 17.8 nM, the N came out at 0.65 and the ΔH was -11.8 kcal/mol.

B4: His6-HDMXNTD (other, human)
chain: HHHHHHMTSFSTSAQCSTSDSACRISPGQINQVRPKLPLLKILHAAGAQGEMFTVKEVMHYLGQYIMVKQLYDQQEQHMVYCGGDLLGELLGRQSFSVKDPSPLYDMLRKNLVTLATATTDAAQTLALAQDHSMDIPS
notes: range 1-132; Tag placed N-terminally by its name only
As to B4, the binding result in the test with GST [4] is given as “no binding”.

With B5, the binding result with GST [8] is given as “no binding (tested: 6400 nM)”.

The record behind these values is patent publication US20150094271A1 (SAMSUNG ELECTRONICS, published 2015).
